Measured values from paper PMC7544158 (Nature structural & molecular biology, 2020).
Like-named read-outs stand apart in the source and are kept apart here. Where no end group is shown, it is not given here. The star is where a group is joined. FITC = O=C1OC2(c3ccc(O)cc3Oc3cc(O)ccc32)c2ccc(NC(=S)*)cc21

How the values were obtained:
Experiment in all cases: fluorescence polarisation
[1] = molecular target: T1, BFL-1ΔC C55 (N-His6 BFL-1ΔC (1–151) bearing C4S/C19S mutations) (human, UniProt Q16548 1-151, C4S | C19S)
T1 sequence (looked up): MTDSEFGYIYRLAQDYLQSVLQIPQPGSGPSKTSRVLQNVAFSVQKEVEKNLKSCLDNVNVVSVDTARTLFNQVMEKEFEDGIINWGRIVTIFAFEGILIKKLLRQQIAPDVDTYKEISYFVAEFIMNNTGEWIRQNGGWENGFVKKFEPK

[2] = molecular target: T1, BFL-1ΔC C55 (N-His6 BFL-1ΔC (1–151) …); remark: listed apart in the source
[3] = molecular target: T1, BFL-1ΔC C55 (N-His6 BFL-1ΔC (1–151) …); remark: listed apart in the source
[4] = molecular target: T1, BFL-1ΔC C55 (N-His6 BFL-1ΔC (1–151) …); remark: listed apart in the source
[5] = molecular target: T1, BFL-1ΔC C55 (N-His6 BFL-1ΔC (1–151) …); remark: listed apart in the source

Kd [1]: 12.3 nM
Kd [2]: 18.4 nM
Kd [3]: 1.6 nM
Kd [4]: 3.3 nM
Kd [5]: 24.3 nM
B1: FITC-BID BH3 peptide (peptide)
chain: {FITC}-DIIRNIARHLAQVGDSMDRSI
